# Measurements as given in US20260015399A1 (Boehringer Ingelheim, published 2026).
# *1 amine or outer side, *2 acyl side, *3 side chain or, on linkers, in order; H or OH if unused. Side-chain parts run from the residue outwards. The star is where a group is joined. C18 diacid = O=C(O)CCCCCCCCCCCCCCCCC(=O)*; γGlu = O=C(O)[C@H](CCC(=O)[*:2])N[*:1]; Isovaleryl = CC(C)CC(=O)*; Ahx = NCCCCCC(=O)O
# T1: human NPY5 receptor (human, UniProt Q15761 1-445)
# T1 sequence (looked up): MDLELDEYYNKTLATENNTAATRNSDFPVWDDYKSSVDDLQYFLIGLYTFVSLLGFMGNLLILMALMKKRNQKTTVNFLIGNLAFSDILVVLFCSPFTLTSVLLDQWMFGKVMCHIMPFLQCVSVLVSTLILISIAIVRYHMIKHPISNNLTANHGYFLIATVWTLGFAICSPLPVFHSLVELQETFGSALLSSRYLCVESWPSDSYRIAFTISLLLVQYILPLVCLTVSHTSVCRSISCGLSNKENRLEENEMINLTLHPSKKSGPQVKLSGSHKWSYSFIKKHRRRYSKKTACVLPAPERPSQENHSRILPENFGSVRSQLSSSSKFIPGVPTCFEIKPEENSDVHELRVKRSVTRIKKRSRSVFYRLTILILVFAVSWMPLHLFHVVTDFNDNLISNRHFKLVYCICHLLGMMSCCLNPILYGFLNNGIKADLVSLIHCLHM
# T2: human NPY2 receptor (human, UniProt P49146 1-381)
# T2 sequence (looked up): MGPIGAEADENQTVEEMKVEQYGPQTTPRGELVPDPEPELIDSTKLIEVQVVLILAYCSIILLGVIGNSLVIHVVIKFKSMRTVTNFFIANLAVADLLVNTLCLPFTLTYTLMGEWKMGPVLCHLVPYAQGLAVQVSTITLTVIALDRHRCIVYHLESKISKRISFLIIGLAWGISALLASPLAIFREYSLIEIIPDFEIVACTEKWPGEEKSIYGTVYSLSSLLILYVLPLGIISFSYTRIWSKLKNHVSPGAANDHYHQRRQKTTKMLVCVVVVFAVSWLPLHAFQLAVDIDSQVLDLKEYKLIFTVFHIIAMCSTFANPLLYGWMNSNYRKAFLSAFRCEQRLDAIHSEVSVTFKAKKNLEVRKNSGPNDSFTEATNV
# Tests used:
# human NPY5 receptor = target: T1, human NPY5 receptor; assay: cell-based or functional assay
# human NPY2 receptor [1] = target: T2, human NPY2 receptor; assay: cell-based or functional assay
# human NPY2 receptor [2] = target: T2, human NPY2 receptor; assay: RLB: displacement of 125I-PYY(1-36) from hNPY2R membranes
Binder,"EC50, HTRF cAMP Gi assay (human NPY5 receptor)","EC50, HTRF cAMP Gi assay (human NPY2 receptor [1])",Ki (human NPY2 receptor [2])
Isovaleryl-APAK([Ahx-γGlu-C18 diacid])PEEDASPEELQRYYVSLRHYYNWLTRQRY-NH2 (SMILES CC(C)CC(=O)N[C@@H](C)C(=O)N1CCC[C@H]1C(=O)N[C@@H](C)C(=O)N[C@@H](CCCCNC(=O)CCCCCNC(=O)CC[C@H](NC(=O)CCCCCCCCCCCCCCCCC(=O)O)C(=O)O)C(=O)N1CCC[C@H]1C(=O)N[C@@H](CCC(=O)O)C(=O)N[C@@H](CCC(=O)O)C(=O)N[C@@H](CC(=O)O)C(=O)N[C@@H](C)C(=O)N[C@@H](CO)C(=O)N1CCC[C@H]1C(=O)N[C@@H](CCC(=O)O)C(=O)N[C@@H](CCC(=O)O)C(=O)N[C@@H](CC(C)C)C(=O)N[C@@H](CCC(N)=O)C(=O)N[C@@H](CCCNC(=N)N)C(=O)N[C@@H](Cc1ccc(O)cc1)C(=O)N[C@@H](Cc1ccc(O)cc1)C(=O)N[C@H](C(=O)N[C@@H](CO)C(=O)N[C@@H](CC(C)C)C(=O)N[C@@H](CCCNC(=N)N)C(=O)N[C@@H](Cc1c[nH]cn1)C(=O)N[C@@H](Cc1ccc(O)cc1)C(=O)N[C@@H](Cc1ccc(O)cc1)C(=O)N[C@@H](CC(N)=O)C(=O)N[C@@H](Cc1c[nH]c2ccccc12)C(=O)N[C@@H](CC(C)C)C(=O)N[C@H](C(=O)N[C@@H](CCCNC(=N)N)C(=O)N[C@@H](CCC(N)=O)C(=O)N[C@@H](CCCNC(=N)N)C(=O)N[C@@H](Cc1ccc(O)cc1)C(N)=O)[C@@H](C)O)C(C)C) [Compound 145],> 5000 nM,0.118 nM,5.29 nM
Isovaleryl-APEK([Ahx-γGlu-C18 diacid])PPEDASPEEIQRYYVSLRHYYNWLTRQRY-NH2 (SMILES CC[C@H](C)[C@H](NC(=O)[C@H](CCC(=O)O)NC(=O)[C@H](CCC(=O)O)NC(=O)[C@@H]1CCCN1C(=O)[C@H](CO)NC(=O)[C@H](C)NC(=O)[C@H](CC(=O)O)NC(=O)[C@H](CCC(=O)O)NC(=O)[C@@H]1CCCN1C(=O)[C@@H]1CCCN1C(=O)[C@H](CCCCNC(=O)CCCCCNC(=O)CC[C@H](NC(=O)CCCCCCCCCCCCCCCCC(=O)O)C(=O)O)NC(=O)[C@H](CCC(=O)O)NC(=O)[C@@H]1CCCN1C(=O)[C@H](C)NC(=O)CC(C)C)C(=O)N[C@@H](CCC(N)=O)C(=O)N[C@@H](CCCNC(=N)N)C(=O)N[C@@H](Cc1ccc(O)cc1)C(=O)N[C@@H](Cc1ccc(O)cc1)C(=O)N[C@H](C(=O)N[C@@H](CO)C(=O)N[C@@H](CC(C)C)C(=O)N[C@@H](CCCNC(=N)N)C(=O)N[C@@H](Cc1c[nH]cn1)C(=O)N[C@@H](Cc1ccc(O)cc1)C(=O)N[C@@H](Cc1ccc(O)cc1)C(=O)N[C@@H](CC(N)=O)C(=O)N[C@@H](Cc1c[nH]c2ccccc12)C(=O)N[C@@H](CC(C)C)C(=O)N[C@H](C(=O)N[C@@H](CCCNC(=N)N)C(=O)N[C@@H](CCC(N)=O)C(=O)N[C@@H](CCCNC(=N)N)C(=O)N[C@@H](Cc1ccc(O)cc1)C(N)=O)[C@@H](C)O)C(C)C) [Compound 172],> 5000 nM,0.079 nM,0.81 nM
Isovaleryl-APEK([Ahx-γGlu-C18 diacid])AEEDASPEEIQRYYVSLRHYYNWLTRQRY-NH2 (SMILES CC[C@H](C)[C@H](NC(=O)[C@H](CCC(=O)O)NC(=O)[C@H](CCC(=O)O)NC(=O)[C@@H]1CCCN1C(=O)[C@H](CO)NC(=O)[C@H](C)NC(=O)[C@H](CC(=O)O)NC(=O)[C@H](CCC(=O)O)NC(=O)[C@H](CCC(=O)O)NC(=O)[C@H](C)NC(=O)[C@H](CCCCNC(=O)CCCCCNC(=O)CC[C@H](NC(=O)CCCCCCCCCCCCCCCCC(=O)O)C(=O)O)NC(=O)[C@H](CCC(=O)O)NC(=O)[C@@H]1CCCN1C(=O)[C@H](C)NC(=O)CC(C)C)C(=O)N[C@@H](CCC(N)=O)C(=O)N[C@@H](CCCNC(=N)N)C(=O)N[C@@H](Cc1ccc(O)cc1)C(=O)N[C@@H](Cc1ccc(O)cc1)C(=O)N[C@H](C(=O)N[C@@H](CO)C(=O)N[C@@H](CC(C)C)C(=O)N[C@@H](CCCNC(=N)N)C(=O)N[C@@H](Cc1c[nH]cn1)C(=O)N[C@@H](Cc1ccc(O)cc1)C(=O)N[C@@H](Cc1ccc(O)cc1)C(=O)N[C@@H](CC(N)=O)C(=O)N[C@@H](Cc1c[nH]c2ccccc12)C(=O)N[C@@H](CC(C)C)C(=O)N[C@H](C(=O)N[C@@H](CCCNC(=N)N)C(=O)N[C@@H](CCC(N)=O)C(=O)N[C@@H](CCCNC(=N)N)C(=O)N[C@@H](Cc1ccc(O)cc1)C(N)=O)[C@@H](C)O)C(C)C) [Compound 183],> 5000 nM,0.447 nM,18.8 nM

# Further lines, results first:
"EC50, HTRF cAMP Gi assay (human NPY5 receptor)","EC50, HTRF cAMP Gi assay (human NPY2 receptor [1])",Ki (human NPY2 receptor [2]),Binder
> 5000 nM,0.086 nM,3.57 nM,Isovaleryl-APEK([Ahx-γGlu-C18 diacid])PEADASPEELQRYYVSLRHYYNWLTRQRY-NH2 (SMILES CC(C)CC(=O)N[C@@H](C)C(=O)N1CCC[C@H]1C(=O)N[C@@H](CCC(=O)O)C(=O)N[C@@H](CCCCNC(=O)CCCCCNC(=O)CC[C@H](NC(=O)CCCCCCCCCCCCCCCCC(=O)O)C(=O)O)C(=O)N1CCC[C@H]1C(=O)N[C@@H](CCC(=O)O)C(=O)N[C@@H](C)C(=O)N[C@@H](CC(=O)O)C(=O)N[C@@H](C)C(=O)N[C@@H](CO)C(=O)N1CCC[C@H]1C(=O)N[C@@H](CCC(=O)O)C(=O)N[C@@H](CCC(=O)O)C(=O)N[C@@H](CC(C)C)C(=O)N[C@@H](CCC(N)=O)C(=O)N[C@@H](CCCNC(=N)N)C(=O)N[C@@H](Cc1ccc(O)cc1)C(=O)N[C@@H](Cc1ccc(O)cc1)C(=O)N[C@H](C(=O)N[C@@H](CO)C(=O)N[C@@H](CC(C)C)C(=O)N[C@@H](CCCNC(=N)N)C(=O)N[C@@H](Cc1c[nH]cn1)C(=O)N[C@@H](Cc1ccc(O)cc1)C(=O)N[C@@H](Cc1ccc(O)cc1)C(=O)N[C@@H](CC(N)=O)C(=O)N[C@@H](Cc1c[nH]c2ccccc12)C(=O)N[C@@H](CC(C)C)C(=O)N[C@H](C(=O)N[C@@H](CCCNC(=N)N)C(=O)N[C@@H](CCC(N)=O)C(=O)N[C@@H](CCCNC(=N)N)C(=O)N[C@@H](Cc1ccc(O)cc1)C(N)=O)[C@@H](C)O)C(C)C) [Compound 196]
> 5000 nM,0.13 nM,8.93 nM,Isovaleryl-APEK([Ahx-γGlu-C18 diacid])PEEEATPEELQRYYVSLRHYYNWLTRQRY-NH2 (SMILES CC(C)CC(=O)N[C@@H](C)C(=O)N1CCC[C@H]1C(=O)N[C@@H](CCC(=O)O)C(=O)N[C@@H](CCCCNC(=O)CCCCCNC(=O)CC[C@H](NC(=O)CCCCCCCCCCCCCCCCC(=O)O)C(=O)O)C(=O)N1CCC[C@H]1C(=O)N[C@@H](CCC(=O)O)C(=O)N[C@@H](CCC(=O)O)C(=O)N[C@@H](CCC(=O)O)C(=O)N[C@@H](C)C(=O)N[C@H](C(=O)N1CCC[C@H]1C(=O)N[C@@H](CCC(=O)O)C(=O)N[C@@H](CCC(=O)O)C(=O)N[C@@H](CC(C)C)C(=O)N[C@@H](CCC(N)=O)C(=O)N[C@@H](CCCNC(=N)N)C(=O)N[C@@H](Cc1ccc(O)cc1)C(=O)N[C@@H](Cc1ccc(O)cc1)C(=O)N[C@H](C(=O)N[C@@H](CO)C(=O)N[C@@H](CC(C)C)C(=O)N[C@@H](CCCNC(=N)N)C(=O)N[C@@H](Cc1c[nH]cn1)C(=O)N[C@@H](Cc1ccc(O)cc1)C(=O)N[C@@H](Cc1ccc(O)cc1)C(=O)N[C@@H](CC(N)=O)C(=O)N[C@@H](Cc1c[nH]c2ccccc12)C(=O)N[C@@H](CC(C)C)C(=O)N[C@H](C(=O)N[C@@H](CCCNC(=N)N)C(=O)N[C@@H](CCC(N)=O)C(=O)N[C@@H](CCCNC(=N)N)C(=O)N[C@@H](Cc1ccc(O)cc1)C(N)=O)[C@@H](C)O)C(C)C)[C@@H](C)O) [Compound 146]
> 5000 nM,0.146 nM,5.04 nM,Isovaleryl-APEK([Ahx-γGlu-C18 diacid])PEEDASPEEIQRYYVSLRHYYNWLTRQRY-NH2 (SMILES CC[C@H](C)[C@H](NC(=O)[C@H](CCC(=O)O)NC(=O)[C@H](CCC(=O)O)NC(=O)[C@@H]1CCCN1C(=O)[C@H](CO)NC(=O)[C@H](C)NC(=O)[C@H](CC(=O)O)NC(=O)[C@H](CCC(=O)O)NC(=O)[C@H](CCC(=O)O)NC(=O)[C@@H]1CCCN1C(=O)[C@H](CCCCNC(=O)CCCCCNC(=O)CC[C@H](NC(=O)CCCCCCCCCCCCCCCCC(=O)O)C(=O)O)NC(=O)[C@H](CCC(=O)O)NC(=O)[C@@H]1CCCN1C(=O)[C@H](C)NC(=O)CC(C)C)C(=O)N[C@@H](CCC(N)=O)C(=O)N[C@@H](CCCNC(=N)N)C(=O)N[C@@H](Cc1ccc(O)cc1)C(=O)N[C@@H](Cc1ccc(O)cc1)C(=O)N[C@H](C(=O)N[C@@H](CO)C(=O)N[C@@H](CC(C)C)C(=O)N[C@@H](CCCNC(=N)N)C(=O)N[C@@H](Cc1c[nH]cn1)C(=O)N[C@@H](Cc1ccc(O)cc1)C(=O)N[C@@H](Cc1ccc(O)cc1)C(=O)N[C@@H](CC(N)=O)C(=O)N[C@@H](Cc1c[nH]c2ccccc12)C(=O)N[C@@H](CC(C)C)C(=O)N[C@H](C(=O)N[C@@H](CCCNC(=N)N)C(=O)N[C@@H](CCC(N)=O)C(=O)N[C@@H](CCCNC(=N)N)C(=O)N[C@@H](Cc1ccc(O)cc1)C(N)=O)[C@@H](C)O)C(C)C) [Compound 147]
